Two molecules from patent US9555076B2, “Neuregulin based methods and compositions for treating cardiovascular diseases” (Zensun (Shanghai) Science & Technology, Co., Ltd., priority 2002, dated 2017) can be followed below.

Several values for one entry are separate records, joined by “and”; a condition that tells them apart may be missing. Identical values can stand only once.

Series [1] deals with toxic myocarditis caused by Adriamycin in rat. Put plainly: Survival rate, Adriamycin caused toxic myocarditis rat model. Type of series: in vivo, SD rat. Conditions: Adriamycin 3.3 mg/kg iv once every week × 4, 5 weeks later. The protocol:
rhNRG-1β was injected into the tail vein within 24 hours after the first injection of Adriamycin, the injection of rhNRG-1 β was carried out once daily for 10 days. Dosage was adjusted according to the body weight, volume of the drug administered was 0.2 ml/100 g.
Based on the <<Guidance Principle of New Drug Preclinical Experiment>>, 3.3 mg/kg of Adriamycin was injected into the tail vein, once per week for consecutive 4 injections, establishing Adriamycin caused toxic myocarditis rat model.
(§1) rhNRG-1 β was injected into the tail vein within 24 hours after the first injection of Adriamycin. During the experiment, animal survival was dynamically monitored, heart function indexes (maximal rate of pressure increase within left ventricle, […], maximal rate of pressure decrease within left ventricle, −dp/dt, systolic end pressure of left ventricle LVPmax, diastolic end pressure of left ventricle LVPmin) were monitored at the 5th week. Section was made from the heart tissue and pathological changes examined.
Situation of survival was recorded weekly and the survival rate of the various experimental groups was calculated. Survival rate (%)=survival animal number/number of experimental animals×100.

The test system is the same in series [2]. Put plainly: Hemodynamics index, Adriamycin rat model. The format is in vivo, SD rat. The following applies: 5 weeks later. As to the method:
as §1
Hemodynamics index such as carotid artery pressure, intra-ventricular pressure. dp/dt was measured with six lead physiology recorder. Major procedure: separate the right carotid artery, ligate its distal end and block its proximal end with arterial clamps, 20 G arteriovenous indwelling needle was inserted into the carotid artery, took out the medal stylet, loosened the artery clamps, push the plastic trocar further into appropriate depth, indwelled for 10 minutes, observed the wave style recorded by the physiology recorder, after it was stable, then recorded the carotid artery pressure and push the trocar further into the left ventricle, kept in place for 15 minutes, after it was stable, then recorded the dp/dt, −dp/dt, LVPmax and LVPmin.

Series [3] shares this test system. Put plainly: Myocardial pathologic scoring, Adriamycin rat model. Type of series: in vivo, SD rat. The following applies: Adriamycin 3.3 mg/kg iv weekly × 4, 5 weeks later. The protocol: (§2) Heart was extirpated after thoracotomy (auricle should be reserved), the heart weight was measured after dried with absorbent paper, ratio of heart weight/body weight calculated; outer diameter of the heart was measured at ½ site of the vertically standing heart; medium part of the left ventricle was crosswise cut open, maximal thickness of free wall of the left ventricle measured; the heart was fixed with 10% formaldehyde, paraffin embedded and HE stained, observation of the myocardial structure carried out under optic microscope, give out pathologic score.
Scoring could be performed between grade 1 and grade 2 or between grade 2 and grade 3, e.g. grade 1.5, grade 2.5 etc. 6.3.3.3 Determination of Hemodynamics Index

The test system is the same in series [4]. Put plainly: Serum troponin T (cTnT) level, Adriamycin rat model. The format is in vivo, SD rat. Conditions: Adriamycin 3.3 mg/kg iv once every week × 4, 5 weeks later. The protocol:
2 ml of arterial blood was withdrawn, serum extracted, frozen and stored at −20° C., determination of serum cTnT content was performed with electrochemistry irradiate method submitted to be carried out by Clinical Laboratory of Zhong Shan Hospital.

Series [5] shares this test system. Put plainly: Heart size (heart weight/body weight, wall thickness), Adriamycin rat model. The format is in vivo, SD rat. Conditions: Adriamycin 3.3 mg/kg iv once every week × 4, 5 weeks later. As to the method:
as §2

The test system of another series is Rhesus. Put plainly: Rhesus long-term toxicity study, 3 weeks iv plus 3 weeks convalescence. Conditions: for heart rate in conscious animals (electrocardiography): every drug taken group.
Where [6] appears, read: rat, Adriamycin 3.3 mg/kg iv once every week × 4.
Where [7] appears, read: survived rat, Adriamycin 3.3 mg/kg iv weekly × 4.

In series [1], `COc1cccc2c1C(=O)c1c(O)c3c(c(O)c1C2=O)C[C@@](O)(C(=O)CO)C[C@@H]3O[C@H]1C[C@H](N)[C@H](O)[C@H](C)O1` [Adriamycin, reference compound] gave a survival rate of 15%. In series [2] (setting [6]), this molecule had an LVPmax of 106.1 ± 21.2 mmHg and a dp/dt of 2674 ± 446 mmHg/s. Besides, in series [2] (rat, Adriamycin 3.3 mg/kg iv once every week × 4, in mmHg), the LVPmin was −10.0 ± 4.7. Further, in series [2] (rat, Adriamycin 3.3 mg/kg iv once every week × 4, in mmHg/s), the “−dp/dt” value is reported as −2141 ± 596. Further, in series [2] (setting [7]), the “LVPmax as % of the normal value” is given as 58%, the “LVPmin as % of the normal value” is given as 37%, the “dp/dt as % of the normal value” was 43% and the “−dp/dt as % of the normal value” is given as 47%. For the same molecule, the relative morbidity rate in series [3] is recorded as 100%. Besides, the cTnT in series [4] is 0.2 ng/mL and 0.205 ± 0.072 ng/mL. In addition, in series [5], the Heart weight/body weight is 0.0031 ± 0.0001^, the heart circumference was 30.6 ± 0.1 mm and the “thickness of left ventricular wall” value was 1.73 ± 0.16^ mm.

B1: rhNRG-1 β: Recombinant human neuregulin fragment of 61 amino acid (SEQ ID NO:4), 3 disulfide bonds, expressed in E. coli (protein, listed as Homo sapiens)
chain: SHLVKCAEKEKTFCVNGGECFMVKDLSNPSRYLCKCPNEFTGDRCQNYVMASFYKAEELYQ
modifications: Human neuregulin beta-2 fragment
With B1, in the series with Rhesus (7.5, 15, 75 μg/kg/d iv 3 weeks), the bone marrow smear entry was “No significant toxic pathologic changes”; the echocardiogram entry is on record as “no significant abnormality in echocardiogram”; the fundus examination result was “No abnormal changes”; the “hematological, biochemistry examination, urine and fecal testing” value is listed as “no significant toxicological changes”. The organ weight result in the series on Rhesus (7.5, 15, 75 μg/kg/d iv 3 weeks) is “No abnormal changes in organ weight”. Further, the body temperature result with Rhesus (all animals, prior to and after the drug administration) is “no significant changes of body temperature”. Further, the “site of drug injection” value with Rhesus (drug taken groups) is “mild paleness, hardening of regional skin and vessels”. Also, the “general symptoms, gastrointestinal” value in the series with Rhesus (each drug taken group, 1 week after the beginning of drug administration) was “Vomiting, nausea and salivation occurred in part of the animals”. Moreover, the “heart rate in conscious animals (electrocardiography)” value with Rhesus (3-week of drug administration) is given as “significant reduction of heart rate”. Besides, the “heart rate in conscious animals (electrocardiography)” value in the series on Rhesus (10-day of drug administration) is given as “no significant deceleration of heart rate”. Also, the myocardium pathohistology result in the series on Rhesus (high dosage 75 μg/kg/d iv 3 weeks) is “could cause vacuole in the cytoplasma of myocardium”. For the same molecule, the food ingestion entry with Rhesus (high dosage group 75 μg/kg/d) was “reduced significantly”. Also, in the series with Rhesus (high dosage group 75 μg/kg/d, self-comparison prior to and after drug), the body weight result is on record as “lowered markedly”. Besides, the recovery of hydrocephalus result in the series on Rhesus (high dosage group, 3 weeks after drug withdrawal) is recorded as “did not recover entirely”. The “dosage level that did not cause pericardial effusion and hydrocephalus” value in the series with Rhesus (iv daily 3 weeks, 3-week's convalescent period) turned out to be 7.5 µg/kg/day.
